# In patent US20180171001A1:
# Numbering of substitutions follows the chain as printed.
# B1: γ8κ3 (antibody, V domains shown)
# VH: QIHLVQSGTGVKKPGSSVTVSCKAYGVNTFGLYAVNWVRQAPGQGLEYIGQIWRWKSSASHHFRGRVLISAVDLTGSSPPITSLEIKNVTSDDTAVYFCTTTSTYDKWSGLYHDGVMAFSSWGQGTLISVSA
# VL: DIQMTQSPSTLSASIGDTVRISCRASQSITGNWLAWYHQRPGKAPRLLIYRGSRLLGGVPSRFSGSAAGTDFTLTIANLQAEDFGTFYCQQYDTYPGTFGQGTKVEVKR
# B2: 8ANC3040 (antibody, V domains shown)
# VH: B1 VH with G10E, G45S, T82S, V89L, K107Q, Y112H
# VL: B1 VL with L34V, H38Q, S53A, R54A, A77G
# B3: γ3κ3 (antibody, V domains shown)
# VH: QIHLVQSGTEVKKPGSSVTVSCKAYGVNTFGLYAVSWVRQAPGQRLEYIGQIRRWKSSASHHFRGRVTVSAVDPTGSSPPISSLEIRDLTTDDTAVYFCTTTSTSDYWSGLHNERGTAFSSWGQGTLISVSA
# VL: B1 VL
# B4: 8ANC3484 (antibody, V domains shown)
# VH: B1 VH with G10E, G45S, T82S, V89L, K107R, Y112H
# VL: B1 VL with L34V, H38Q, S53A, R54A, S64R, A77G
# B5: γ52κ3 (antibody, V domains shown)
# VH: B1 VH with G10E, G45S, T82S, V89L, K107R, Y112H
# VL: B1 VL
# B6: γ15κ3 (antibody, V domains shown)
# VH: B1 VH with G10E, G45S, L68I, T82S, V89L, T102A, Y112H
# VL: B1 VL
# Target: Env of HIV-1 strain 3365.v2.c20 (HIV-1)
# Test: cell-based or functional assay
row,Binder,neutralization IC50 [µg/mL]
1,B1,> 15
2,B2,> 25
3,B3,> 15
4,B4,> 30
5,B5,> 15
6,B6,> 15

# Target: Env of HIV-1 strain 250-4 (HIV-1)
# Test: cell-based or functional assay
row,Binder,neutralization IC50 [µg/mL]
1,B1,> 15
2,B3,> 15
3,B4,> 30
4,B5,> 15
5,B6,> 15

# Target: Env of HIV-1 strain H086.8 (HIV-1)
# Test: cell-based or functional assay
row,Binder,neutralization IC50 [µg/mL]
1,B1,> 15
2,B3,3.31
3,B4,0.394
4,B5,> 15
5,B6,> 15

# Target: Env of HIV-1 strain YU2.DG (HIV-1)
# Test: cell-based or functional assay
row,Binder,neutralization IC50 [µg/mL]
1,B1,5.41
2,B2,0.617
3,B3,0.42
4,B4,0.461
5,B5,5.75
6,B6,1.07

# Target: Env of HIV-1 strain ZM109F.PB4 (HIV-1)
# Test: cell-based or functional assay
row,Binder,neutralization IC50 [µg/mL]
1,B1,> 15
2,B3,> 15
3,B4,> 30
4,B5,> 15
5,B6,> 15

# Target: Env of HIV-1 strain Du172.17 (HIV-1)
# Test: cell-based or functional assay
row,Binder,neutralization IC50 [µg/mL]
1,B1,> 15
2,B3,> 15
3,B4,4.01
4,B5,> 15
5,B6,> 15

# Target: Env of HIV-1 strain PVO.4 (HIV-1)
# Test: cell-based or functional assay
row,Binder,neutralization IC50 [µg/mL]
1,B1,> 15
2,B2,0.284
3,B3,0.17
4,B4,0.077
5,B5,1.92
6,B6,5.32

# Target: Env of HIV-1 strain R1166.c1 (HIV-1)
# Test: cell-based or functional assay
row,Binder,neutralization IC50 [µg/mL]
1,B1,7.6
2,B2,2.37
3,B3,2.2
4,B4,1.03
5,B5,23.4
6,B6,3.94

# Target: Env of HIV-1 strain 231965.c1 (HIV-1)
# Test: cell-based or functional assay
row,Binder,neutralization IC50 [µg/mL]
1,B1,3.48
2,B2,1.17
3,B3,0.727
4,B4,0.294
5,B5,6.59
6,B6,1.61

# Target: Env of HIV-1 strain ZM53M.PB12 (HIV-1)
# Test: cell-based or functional assay
row,Binder,neutralization IC50 [µg/mL]
1,B1,> 15
2,B2,14.9
3,B3,> 15
4,B4,11.6
5,B5,> 15
6,B6,> 15

# Target: Env of HIV-1 strain 3016.v5.c45 (HIV-1)
# Test: cell-based or functional assay
row,Binder,neutralization IC50 [µg/mL]
1,B1,2.38
2,B2,0.427
3,B3,0.347
4,B4,0.131
5,B5,3.05
6,B6,1.26

# Target: Env of HIV-1 strain X1254_c3 (HIV-1)
# Test: cell-based or functional assay
row,Binder,neutralization IC50 [µg/mL]
1,B1,4.01
2,B2,2.91
3,B3,1.82
4,B4,2.19
5,B5,> 15
6,B6,3.49

# Target: Env of HIV-1 strain 3415.v1.c1 (HIV-1)
# Test: cell-based or functional assay
row,Binder,neutralization IC50 [µg/mL]
1,B1,> 15
2,B2,3.06
3,B3,> 15
4,B4,0.589
5,B5,> 15
6,B6,> 15

# Target: Env of HIV-1 strain 251-18 (HIV-1)
# Test: cell-based or functional assay
row,Binder,neutralization IC50 [µg/mL]
1,B1,> 15
2,B2,0.571
3,B3,> 15
4,B4,0.391
5,B5,14.5
6,B6,> 15

# Target: Env of MuLV
# Test: cell-based or functional assay
row,Binder,neutralization IC50 [µg/mL]
1,B1,> 18
2,B2,> 30
3,B3,> 30
4,B4,> 30
5,B5,> 30
6,B6,> 30

# Target: Env of HIV-1 strain REJO4541.67 (HIV-1)
# Test: cell-based or functional assay
row,Binder,neutralization IC50 [µg/mL]
1,B1,> 15
2,B2,0.198
3,B3,0.26
4,B4,0.117
5,B5,> 15
6,B6,> 15
